Here are results for one substance from patent US20230218715A1.

Holding throughout (test): cell-based or functional assay
Assay [1] has as its target S protein of SARS-CoV strain Urbani (SARS-CoV strain Urbani).
The target in assay [2] is S protein of SARS-CoV-2 strain USA-WA1/2020 (SARS-CoV-2 strain USA-WA1/2020) (UniProt P0DTC2).
Assay [3] has as its target S protein of HCoV strain 229E (HCoV 229E) (UniProt P15423).
For assay [4], the target named is S protein of HCoV strain OC43 (HCoV OC43) (UniProt P36334).
Assay [5] deals with S protein of SARS-CoV strain Tor-II (SARS-CoV strain Tor-II) (UniProt P59594).
The target of assay [6] is S protein of MERS-CoV strain EMC/2012 (MERS-CoV strain EMC/2012) (UniProt K9N5Q8).
Assay [7] addresses S protein of HCoV strain NL63 (HCoV NL63) (UniProt Q6Q1S2).
The target of assay [8] is S protein of SARS-CoV strain Frank (SARS-CoV strain Frank).
The target of assay [9] is S protein of SARS-CoV strain CuHK (SARS-CoV strain CuHK).

UniProt Q6Q1S2, sequence (Q6Q1S2 19-1356): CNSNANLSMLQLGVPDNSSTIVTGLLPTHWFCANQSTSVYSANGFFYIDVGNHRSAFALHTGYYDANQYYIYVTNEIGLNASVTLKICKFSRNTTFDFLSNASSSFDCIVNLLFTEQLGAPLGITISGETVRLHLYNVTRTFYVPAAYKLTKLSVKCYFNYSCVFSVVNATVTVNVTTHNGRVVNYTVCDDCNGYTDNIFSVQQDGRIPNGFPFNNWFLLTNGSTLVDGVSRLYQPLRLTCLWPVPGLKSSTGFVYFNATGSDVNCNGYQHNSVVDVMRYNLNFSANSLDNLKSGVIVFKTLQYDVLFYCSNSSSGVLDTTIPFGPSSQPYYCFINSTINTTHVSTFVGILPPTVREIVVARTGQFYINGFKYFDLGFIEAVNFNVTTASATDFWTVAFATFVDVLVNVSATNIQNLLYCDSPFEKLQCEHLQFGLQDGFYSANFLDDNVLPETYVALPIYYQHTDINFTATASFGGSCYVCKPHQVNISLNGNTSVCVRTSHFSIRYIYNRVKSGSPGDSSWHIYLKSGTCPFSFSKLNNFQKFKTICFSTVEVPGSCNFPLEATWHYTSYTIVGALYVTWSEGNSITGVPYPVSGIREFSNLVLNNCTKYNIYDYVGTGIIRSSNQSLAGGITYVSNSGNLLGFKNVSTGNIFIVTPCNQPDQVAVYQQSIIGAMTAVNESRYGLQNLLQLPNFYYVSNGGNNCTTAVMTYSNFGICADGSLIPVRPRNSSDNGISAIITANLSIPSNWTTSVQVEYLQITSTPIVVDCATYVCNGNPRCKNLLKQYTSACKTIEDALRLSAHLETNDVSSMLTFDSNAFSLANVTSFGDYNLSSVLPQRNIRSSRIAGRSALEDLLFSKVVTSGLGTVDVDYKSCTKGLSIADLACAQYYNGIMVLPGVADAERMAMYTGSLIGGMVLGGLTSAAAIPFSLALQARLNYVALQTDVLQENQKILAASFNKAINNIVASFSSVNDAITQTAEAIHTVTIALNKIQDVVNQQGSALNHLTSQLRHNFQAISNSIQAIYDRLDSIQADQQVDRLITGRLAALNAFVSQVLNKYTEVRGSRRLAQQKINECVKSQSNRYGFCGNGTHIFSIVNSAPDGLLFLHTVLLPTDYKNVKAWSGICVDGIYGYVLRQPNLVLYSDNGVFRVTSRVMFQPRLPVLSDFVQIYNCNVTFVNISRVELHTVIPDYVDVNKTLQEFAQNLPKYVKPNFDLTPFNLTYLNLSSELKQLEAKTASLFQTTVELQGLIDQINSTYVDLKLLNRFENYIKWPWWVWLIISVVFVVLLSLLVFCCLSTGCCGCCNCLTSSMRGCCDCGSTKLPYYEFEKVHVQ
UniProt P15423, sequence (P15423 16-1173): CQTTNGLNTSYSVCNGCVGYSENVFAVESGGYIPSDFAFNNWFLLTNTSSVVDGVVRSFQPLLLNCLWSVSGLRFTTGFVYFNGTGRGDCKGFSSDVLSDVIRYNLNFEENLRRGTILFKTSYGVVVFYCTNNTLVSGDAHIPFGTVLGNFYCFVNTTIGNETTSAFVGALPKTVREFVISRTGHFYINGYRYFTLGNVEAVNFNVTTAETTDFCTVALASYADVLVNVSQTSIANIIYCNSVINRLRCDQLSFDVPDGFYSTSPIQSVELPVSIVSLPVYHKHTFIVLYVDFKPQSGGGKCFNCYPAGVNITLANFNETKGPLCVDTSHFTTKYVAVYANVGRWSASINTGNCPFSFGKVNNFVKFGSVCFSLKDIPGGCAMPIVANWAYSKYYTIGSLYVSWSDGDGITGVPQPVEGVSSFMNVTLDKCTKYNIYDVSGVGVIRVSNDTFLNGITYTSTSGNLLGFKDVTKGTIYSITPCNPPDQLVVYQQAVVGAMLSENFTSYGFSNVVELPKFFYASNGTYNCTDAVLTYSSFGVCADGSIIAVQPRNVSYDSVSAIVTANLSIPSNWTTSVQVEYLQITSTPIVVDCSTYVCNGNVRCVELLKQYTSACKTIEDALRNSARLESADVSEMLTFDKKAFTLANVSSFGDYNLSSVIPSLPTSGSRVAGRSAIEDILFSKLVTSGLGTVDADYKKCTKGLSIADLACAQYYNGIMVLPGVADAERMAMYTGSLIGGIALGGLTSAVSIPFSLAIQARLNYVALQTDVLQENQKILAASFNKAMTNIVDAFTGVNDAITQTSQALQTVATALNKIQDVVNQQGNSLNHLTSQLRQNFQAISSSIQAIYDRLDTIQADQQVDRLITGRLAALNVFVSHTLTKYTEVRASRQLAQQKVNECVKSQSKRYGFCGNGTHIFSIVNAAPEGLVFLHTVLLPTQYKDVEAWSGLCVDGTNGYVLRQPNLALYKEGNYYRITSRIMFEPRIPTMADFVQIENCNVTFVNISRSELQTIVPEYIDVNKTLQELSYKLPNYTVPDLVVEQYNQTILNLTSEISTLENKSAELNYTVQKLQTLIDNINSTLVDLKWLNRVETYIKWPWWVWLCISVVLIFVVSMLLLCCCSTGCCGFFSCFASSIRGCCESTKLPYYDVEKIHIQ
UniProt P36334, sequence (P36334 14-1353): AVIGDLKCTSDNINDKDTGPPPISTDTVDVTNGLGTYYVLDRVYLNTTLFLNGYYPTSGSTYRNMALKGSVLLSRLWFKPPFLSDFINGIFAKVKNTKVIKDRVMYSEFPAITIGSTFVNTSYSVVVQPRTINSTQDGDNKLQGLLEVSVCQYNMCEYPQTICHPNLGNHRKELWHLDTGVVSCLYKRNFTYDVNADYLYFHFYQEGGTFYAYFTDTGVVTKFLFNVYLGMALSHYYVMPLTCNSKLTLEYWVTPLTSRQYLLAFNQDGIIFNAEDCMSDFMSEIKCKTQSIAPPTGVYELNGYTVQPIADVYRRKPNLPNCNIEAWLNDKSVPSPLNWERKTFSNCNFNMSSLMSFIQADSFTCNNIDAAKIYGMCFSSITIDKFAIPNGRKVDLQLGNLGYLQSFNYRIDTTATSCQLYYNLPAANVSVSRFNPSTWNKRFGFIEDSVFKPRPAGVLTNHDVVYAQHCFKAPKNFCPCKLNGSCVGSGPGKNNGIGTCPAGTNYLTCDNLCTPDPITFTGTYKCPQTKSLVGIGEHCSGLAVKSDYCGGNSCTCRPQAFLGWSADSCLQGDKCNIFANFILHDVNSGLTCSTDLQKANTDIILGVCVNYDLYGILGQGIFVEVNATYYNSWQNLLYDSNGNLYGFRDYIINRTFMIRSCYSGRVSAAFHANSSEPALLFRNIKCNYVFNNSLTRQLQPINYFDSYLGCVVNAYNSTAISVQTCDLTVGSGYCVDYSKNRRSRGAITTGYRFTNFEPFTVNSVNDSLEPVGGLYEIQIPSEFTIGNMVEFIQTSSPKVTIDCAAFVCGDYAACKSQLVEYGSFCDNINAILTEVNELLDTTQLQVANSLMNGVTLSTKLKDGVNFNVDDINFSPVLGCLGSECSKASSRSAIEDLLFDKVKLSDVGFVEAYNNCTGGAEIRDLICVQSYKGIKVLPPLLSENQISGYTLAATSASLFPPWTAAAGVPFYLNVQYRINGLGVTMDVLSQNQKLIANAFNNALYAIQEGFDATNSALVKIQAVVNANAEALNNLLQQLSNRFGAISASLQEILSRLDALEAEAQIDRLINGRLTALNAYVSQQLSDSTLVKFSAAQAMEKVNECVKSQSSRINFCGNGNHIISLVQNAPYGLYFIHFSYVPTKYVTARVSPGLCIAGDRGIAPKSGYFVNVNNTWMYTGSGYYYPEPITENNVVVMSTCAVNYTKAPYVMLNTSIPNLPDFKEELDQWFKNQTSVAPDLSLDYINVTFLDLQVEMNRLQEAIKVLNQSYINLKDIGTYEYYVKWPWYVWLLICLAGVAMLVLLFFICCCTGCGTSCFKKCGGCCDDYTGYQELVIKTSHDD

Turning to wild-type griffithsin, the Antiviral activity EC50 in [1] is 0.61 µg/mL; in assay [2], under 0.1 µg/mL; in [3] it was 0.18 µg/mL; in assay [4] it was 0.16 µg/mL; in [5], 0.61 µg/mL; in assay [6], under 0.124 µg/mL. The Antiviral activity EC50 is under 0.0032 µg/mL in assay [7], 1.19 µg/mL in assay [8] and 0.78 µg/mL in assay [9].
